# Results reported in patent publication US20160177392A1.
# Biological target: soybean alpha-SNAP from the Rhg1 locus, full length, with C-terminal six-histidine tag (soybean (Glycine max))
# Test: gel filtration (Superdex 75); HgSLP-1 alone eluted at fraction 23, albumin standard (67 kDa) at fraction 12, chymotrypsinogen A (25 kDa) at fraction 30
substance,measurement,value
"Heterodera glycines SNARE-like protein 1 (HgSLP-1), full length, expressed in E. coli",elution fraction of HgSLP-1 in gel filtration,15
